From PMC2927781, “Allosteric Remodelling of the Histone H3 Binding Pocket in the Pygo2 PHD Finger Triggered by Its Binding to the B9L/BCL9 Co-Factor” (Journal of Molecular Biology, 2010)
Positions count from the first letter of the chain named. In names and notes the source's numbering stands.

B1: PHD_(Pygo1)–HD1_(BCL9) complex with Pygo1 W390F (complex)
chain: VYPCGICTNEVNDDQDAILCEASCQKWFHRICTGMTETAYGLLTAEASAVFGCDTCMADKDVYVFSTEMANKAAEAVLKGQVETIVSFHI
B2: PHD_(Pygo1)–HD1_(BCL9) complex with Pygo1 I357A (complex)
chain: B1 chain with I18A, F51W

Target: T1, 15-mer H3K4me2 histone tail peptide (histone H3 tail dimethylated at lysine 4) (dimethyl-lysine at K4)
T1 construct: histone H3 N-terminal tail, 15-mer peptide, K4 dimethylated; numbers count on: the mature protein (A1 is the N-terminal residue); Surmise: residues 1-15 of the mature histone H3 (A1 to A15); also called dimethylated histone H3 tail peptide
Experiment: ITC; H3K4me2 peptide injected (19 x 2 ul) into the protein; 25 °C; 25 mM Tris pH 8.0, 100 mM NaCl; iTC 200; one-site model
Conditions: both partners purified

| Binder | Kd [µM] |
| --- | --- |
| B1 | 10.3 |
| B2 | 13.5 |
